Positions count from the first letter of the chain named. In names and notes the source's numbering stands.
Tests used:
Test in all cases: purified protein
purified protein [1] = substrate: O=P(O)(O)OP(=O)(O)O; format: biochemical, Saccharum hybrid cultivar; conditions: untreated enzyme, UDPG fixed at 2 mM, 5 mM MgCl2, Hepes-NaOH pH 7.5, room temperature
purified protein [2] = substrate: O=c1ccn([C@@H]2O[C@H](CO[P@@](=O)(O)O[P@@](=O)(O)O[C@H]3O[C@H](CO)[C@@H](O)[C@H](O)[C@H]3O)[C@@H](O)[C@H]2O)c(=O)[nH]1; format: biochemical, Saccharum hybrid cultivar; conditions: untreated enzyme, PPi fixed at 1 mM, 5 mM MgCl2, Hepes-NaOH pH 7.5, room temperature
purified protein [3] = substrate: O=P(O)(O)OP(=O)(O)O; format: biochemical, Hordeum vulgare; conditions: reduced enzyme (2 mM DTT overnight), 5 mM MgCl2, Hepes-NaOH pH 7.5, room temperature
purified protein [4] = substrate: O=c1ccn([C@@H]2O[C@H](CO[P@@](=O)(O)O[P@@](=O)(O)O[C@H]3O[C@H](CO)[C@@H](O)[C@H](O)[C@H]3O)[C@@H](O)[C@H]2O)c(=O)[nH]1; format: biochemical, Hordeum vulgare; conditions: reduced enzyme (2 mM DTT overnight), 5 mM MgCl2, Hepes-NaOH pH 7.5, room temperature

B1: sugarcane UGPase (Saccharum hybrid cultivar SP80-3280) (protein)
chain: MAAAAAAEVSVDEKLDKLRAEVAKLDQISENEKAGFISLVSRYLSGEAEQIEWSKIQTPTDEVVVPYDTLASPPEDLEETKKLLDKLVVLKLNGGLGTTMGCTGPKSVIEVRNGFTFLDLIVIQIESLNKKYGCSVPLLLMNSFNTHDDTQKIVEKYSNSNIEIHTFNQSQYPRIVTEDFLPLPSKGKSGKDGWYPPGHGDVFPSLNNSGKLDILLAQGKEYVFIANSDNLGAIVDIKILNHLINNQNEYCMEVTPKTLADVKGGTLISYEGRVQLLEIAQVPDEHVNEFKSIEKFKIFNTNNLWVNLKAIKRLVEAEALKMEIIPNPKEVDGVKVLQLETAAGAAIRFFDKAIGINVPRSRFLPVKATSDLLLVQSDLYTLVDGFVIRNPARANPANPSIELGPEFKKVANFLARFKSIPSIVELDSLKVSGDVWFGSGITLKGKVTITAKSGVKLEIPDGAVLENKDVNGPEDL
notes: active as monomer
- Km (purified protein [1]): 40 µM
- Km (purified protein [2]): 80 µM

B2: sugarcane UGPase (Saccharum hybrid cultivar SP80-3280; C102S) (protein)
chain: B1 chain with C102S
notes: active as monomer
- Km (purified protein [1]): 230 µM
- Km (purified protein [2]): 110 µM

B3: barley UGPase (Hordeum vulgare) (protein)
chain: MAAAAVAADSKIDGLRDAVAKLGEISENEKAGFISLVSRYLSGEAEQIEWSKIQTPTDEVVVPYDTLAPPPEDLDAMKALLDKLVVLKLNGGLGTTMGCTGPKSVIEVRNGFTFLDLIVIQIESLNKKYGCSVPLLLMNSFNTHDDTQKIVEKYSNSNIEIHTFNQSQYPRIVTEDFLPLPSKGQTGKDGWYPPGHGDVFPSLNNSGKLDTLLSQGKEYVFVANSDNLGAIVDIKILNHLIHNQNEYCMEVTPKTLADVKGGTLISYEGRVQLLEIAQVPDEHVDEFKSIEKFKIFNTNNLWVNLKAIKRLVDAEALKMEIIPNPKEVDGVKVLQLETAAGAAIRFFEKAIGINVPRSRFLPVKATSDLLLVQSDLYTLVDGYVIRNPARVKPSNPSIELGPEFKKVANFLARFKSIPSIVELDSLKVSGDVSFGSGVVLKGNVTIAAKAGVKLEIPDGAVLENKDINGPEDI
notes: active as monomer
- Km (purified protein [3]; UDPG fixed at 1 mM): 30 µM
- Km (purified protein [4]; PPi fixed at 1 mM): 40 µM

B4: barley UGPase (Hordeum vulgare; C99S) (protein)
chain: B3 chain with C99S
notes: active as monomer
- Km (purified protein [3]; UDPG fixed at 2 mM): 310 µM
- Km (purified protein [4]; PPi fixed at 5 mM): 110 µM

From publication PMC10219370, “Exploring Redox Modulation of Plant UDP-Glucose Pyrophosphorylase” (International Journal of Molecular Sciences, 2023)
